4 molecules from paper PMC9133542, “Development of Novel CD47-Specific ADCs Possessing High Potency Against Non-Small Cell Lung Cancer in vitro and in vivo” (Frontiers in Oncology, 2022) can be followed below.

In assay [1] the target is CD47 on the cell membrane of human lung cancer cell lines A549, SPC-A-1 and 95D (Homo sapiens, UniProt Q08722). The experiment in a line: cell-based or functional assay.
Assay [2] deals with T1, CD47/ECD (Gln 19 - Pro 139, His Tag, ACROBiosystems) (Homo sapiens, UniProt Q08722-3).
T1 construct: also called CD47 antigen; CD47/ECD antigen; source: bought: ACROBiosystems (expressed from human 293 cells, HEK293)
T1 sequence (Q08722 19-139): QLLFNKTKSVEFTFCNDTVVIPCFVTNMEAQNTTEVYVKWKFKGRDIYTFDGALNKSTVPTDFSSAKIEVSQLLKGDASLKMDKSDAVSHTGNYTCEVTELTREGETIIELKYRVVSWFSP
Briefly: ELISA; CD47/ECD coated (0.2 ug per well, PBS pH 7.4, 16 h at 4°C), blocked with 2% BSA in PBST; IgG titrated at 11 two-fold dilutions in PBST with 0.5% BSA, 1 h; detected with HRP/anti-human IgG conjugate; EC50 by ED50 Plus v1.0; n = 3. The conditions noted are these: both partners purified.

Sequence of CD47 on the cell membrane of human lung cancer cell lines A549, SPC-A-1 and 95D (Q08722 19-323): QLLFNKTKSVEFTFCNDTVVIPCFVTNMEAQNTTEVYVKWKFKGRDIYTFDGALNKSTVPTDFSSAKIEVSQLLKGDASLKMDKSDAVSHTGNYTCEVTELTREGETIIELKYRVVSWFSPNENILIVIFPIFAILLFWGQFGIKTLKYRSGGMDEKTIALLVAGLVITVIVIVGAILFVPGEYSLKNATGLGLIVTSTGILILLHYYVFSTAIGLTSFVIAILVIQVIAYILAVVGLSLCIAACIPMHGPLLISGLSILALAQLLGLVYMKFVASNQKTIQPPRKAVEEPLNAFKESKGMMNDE

B1: 7DC2-VCMMAE (7DC2 conjugated with maleimidocaproyl-valine-citrulline-monomethyl auristatin E) (antibody, V domains shown)
VH: QVQLQQSGPELVKPGASVKMSCKASGYTFTNYFMHWVKQKPGQGLEWIGYINPYNDGTKYNEKFKGKATLTSDKSSSTAYMELSSLTSEDSAVYYCTKGGRYSMDYWGQGTTLTVSS
VL: DVVMTQTPLSLPVRLGDEVSISCRSSQTIVFTNGNTYLEWYLQKPGQSPKLLIYKVSNRFSGVPDRFSGSGSGTDFTLTISRVEAEDLGIYYCFQGSHVPYTFGGGTKLELK
notes: as the heavy chain of m1 (mouse Fab part); human IgG1 Fc fragment; as the light chain of m1; Antibody-drug conjugate of m1; drug distribution 2, 4, 6 and 8 per antibody; also called 7DC-VCMMAE; source: 7DC2 from Expi293, reduced with TCEP, conjugated with VCMMAE, purified (Amicon-30 kDa); copies: 2 + 2
Take B1: the “IC50 of cytotoxicity on 95D cells (relative cell viability, WST-1; 0.064-40 nM)” value in assay [1] was roughly 40000 pM. Besides, the EC50 in assay [2] was found to be 150 pM.

B2: 7DC2 monoclonal antibody (chimeric anti-human CD47, mouse Fab plus human IgG1 Fc) (antibody, V domains shown)
VH: QVQLQQSGPELVKPGASVKMSCKASGYTFTNYFMHWVKQKPGQGLEWIGYINPYNDGTKYNEKFKGKATLTSDKSSSTAYMELSSLTSEDSAVYYCTKGGRYSMDYWGQGTTLTVSS
VL: DVVMTQTPLSLPVRLGDEVSISCRSSQTIVFTNGNTYLEWYLQKPGQSPKLLIYKVSNRFSGVPDRFSGSGSGTDFTLTISRVEAEDLGIYYCFQGSHVPYTFGGGTKLELK
notes: human IgG1 Fc fragment; mouse light chain of 7DC2; Chimeric IgG1; also called 7DC2 mAb; 7CD2; source: Expi293, transfected with light and heavy chain plasmids, purified; copies: 2 + 2
In the case of B2, the EC50 in assay [2] stood at 150 pM.

B3: 7DC4-VCMMAE (7DC4 conjugated with maleimidocaproyl-valine-citrulline-monomethyl auristatin E) (antibody, V domains shown)
VH: QVQLKQSGAELVQPGASVKLSCKASGYTFTNYYMYWLRQRPGQGLEWIGEINPSNGGTDFNEKFKSKATLTVDKSSSTAFMQLSSLTSDDSAVYYCARGGFTMDYWGQGTTVTVSS
VL: DVVMTQTPLSLPVSLGDQASISCRSSQSLVHSNGNTYLHWYLQKPGQSPKLLIYKVSNRFSGVPDRFSGSGSGTDFTLKISRVEAEDLGVYFCSQSTHVPLTFGAGTKLELK
notes: as the heavy chain of m2 (mouse Fab part); human IgG1 Fc fragment; as the light chain of m2; Antibody-drug conjugate of m2; drug distribution 2, 4, 6 and 8 per antibody; also called 7DC4-CVMMAE; 7DC4-MMAE; source: 7DC4 from Expi293, reduced with TCEP, conjugated with VCMMAE, purified (Amicon-30 kDa); copies: 2 + 2
With B3, the “IC50 of cytotoxicity on 95D cells (relative cell viability, WST-1; 0.064-40 nM)” value in assay [1] is roughly 40000 pM. In addition, the EC50 in assay [2] worked out at 130 pM.

B4: 7DC4 monoclonal antibody (chimeric anti-human CD47, mouse Fab plus human IgG1 Fc) (antibody, V domains shown)
VH: QVQLKQSGAELVQPGASVKLSCKASGYTFTNYYMYWLRQRPGQGLEWIGEINPSNGGTDFNEKFKSKATLTVDKSSSTAFMQLSSLTSDDSAVYYCARGGFTMDYWGQGTTVTVSS
VL: DVVMTQTPLSLPVSLGDQASISCRSSQSLVHSNGNTYLHWYLQKPGQSPKLLIYKVSNRFSGVPDRFSGSGSGTDFTLKISRVEAEDLGVYFCSQSTHVPLTFGAGTKLELK
notes: human IgG1 Fc fragment; mouse light chain of 7DC4; Chimeric IgG1; also called 7DC4 mAb; 7CD4; source: Expi293, transfected with light and heavy chain plasmids, purified; copies: 2 + 2
On to B4, for which the EC50 in assay [2] came out at 130 pM.
